Tested on: E2F8
Assay: Chromatin immunoprecipitation (ChIP) with E2F8 antibody
Format: cell-based, human
Conditions: APELIN-overexpressing HDLEC
Method: Human dermal lymphatic endothelial cells (HDLEC) non transduced or transduced with Apelin Lentivector, were crosslinked for 15 min using 1% formaldehyde directly in the culture medium. 0.125 M of Glycine were then added for 5 min. After two washes with cold PBS, cells were scraped and frozen at −80° C. Cells were lysed to ChIP-IT Express Magnetic Chromatin
Immunoprecipitation kit (Active Motif 53008). Optimal sonication conditions were determined previously in order to obtain DNA fragments of about 500 bp. Cells were sonicated in 350 μl final volume of Shearing buffer specific to the kit, using Diagenode Bioruptor Sonicator (7 cycles, 30 sec ON, 30 sec OFF in a water bath). DNA concentration was determined using a Nanodrop and 25 μg of chromatin were used by reaction. Experiments were then performed according to the manufacturer protocol. 4 μg of E2F8 antibody (Abcam, AB 109596) were used by ChIP reaction. 10 μl of each sample were kept as Input. Reactions were incubated over night at 4° C. A mock sample without antibody was processed similarly. Prior to qPCR, DNA was purified using the Active Motif Chromatin IP DNA purification kit (58002), and eluted in 50 μl of DNase/RNase free water. 2 μl of purified chromatin was used for qPCR. In some experiments, ChIP reactions were supplemented with 10 ng of Drosophila melanogaster chromatin (spike in chromatin, Active motif, 08221011), and 1 μg of an antibody recognizing H2Av, a Drosophila specific histone variant, (spike in antibody, active motif, 61686), as an internal control for ChIP normalization.
HDLEC were seeded in 6-well plates at 100 000 cells/well. After 24 h, cells were transduced with 1 mL of Apelin lentivector diluted in 1 mL of OptiMEM Media in the presence of proteamine sulfate at a final concentration of 5 μg/mL. The Control cells (NT) non transduced with the Apelin Lentivector were processed at the same time and following the same protocol; in this case 2 mL of OptiMEM and 5 μg/mL of proteamine sulfate were added to the cells. The media was replaced after 24 h. […]

B1: APELIN: bioactive peptide apelin, endogenous ligand of APJ; applied to HDLEC as conditioned media from LV-Apelin transduced NIH3T3 or by transduction (protein, listed as Homo sapiens)
chain: MNLRLCVQALLLLWLSLTAVCGGSLMPLPDGNGLEDGNVRHLVQPRGSRNGPGPWQGGRRKFRRQRPRLSHKGPMPF
E2F8 binding on FLT4: no binding | E2F8 binding to CCBE1 promoter: significantly increased | E2F8 binding to E2F1 transcription factor promoter: induced

From patent publication US20260041732A1, “USE OF APELIN FOR THE TREATMENT OF LYMPHEDEMA” (INSTITUT NATIONAL DE LA SANTE ET DE LA RECHERCHE MEDICALE, priority 2022, published 2026)
